Test results reported in the DeepSol protein solubility set.

Test: soluble on expression in E. coli; label from the status in PepcDB or PDB records

| Sequence | soluble on expression in E. coli |
| --- | --- |
| MLSPITLEALHILDAIERRGSFAAAANELNRAPSSLSYQIQKLEQDLDLMIFDRSGHRANFTEAGKLILERGRAILAATEKLVNDATLLANGWELDITIALDGIVPAANLFPMVEALGNISKTRVRIQDEILAGCWEALATGRADLLICPRIEALPQDVKAETIGTMKMIWVAAPTHYVHRRSGEFNEEAREKYRAIAIADTAREQPAMSVNILQRQPRLTVSNLDAKCKALVAGLGIGTLPLQVAQPYIDKGELKAIHGSEDLEMDIVLAWRRNQMGEAKSWCIQYLKKNWRWE | not soluble |
| MTVYHFVGIKGTGMSPLAQILHDNGYTVQGSDIEKFIFTQTALEKRNITILPFSAENIKPGMTVIAGNAFPDTHPEIEKAMSEGIPVIRYHKFLGDYMKKFTSVAVTGAHGKTSTTGLLAHVIQNAKPTSFLIGDGTGQGNENSEYFVFEACEYRRHFLSYQPDYAIMTNIDFDHPDYFSSIDDVFDAFQEMALQVNKGIIACGDDEHLPKIHANVPVVYYGTGEENDFQARNIVKSTEGTTFDVFVRNTFYDTFYIPAYGHHNVLNSLAVIALCHYEEIDSSIIKHALKSFGGVKRRFNEKQLGDQVLIDDYAHHPTEIKVTIEAARQKYPDREIVAVFQPHTFTRTQQFLDEFAESLSGADCVYLCDIFGSARENAGKLTIGDLQGKIHNAKLIEEDDTSVLKAHDKAVLIFMGAGDIQKYMRAYENVMA | not soluble |
| MLSPEQDLNRHADPFPFNEEPSSQDLDSLRDLVTEAETLQDMVTGGLSIDAILNVLDATGEDETIWPVEKTPPDILHLLSPEYAPETAHNTVLPDLTRKEHRIIGIDSHYRINPAQHGEIYHDKQ | not soluble |
| MAHHHHHHMLRFTVPALVVFQNAYAPRVLNRMTPDRMELTMLILKERKKKVRYLGSNFQGFNDRVHLFNAQGGVRRGTRYIIETHHNRIQFKHRSRNNSMVDVRAVKMAGSQYDSIGNYTRMTWDNSLCTTNLLSDPNFKRHFKNMPKEETIGVLEEWGVRYILLDEIRKP | not soluble |
| SSMIMYRKDLMEKAGLTMPDAPTWDFVKEAAQKMTDKDAEVYGICLRGKAGWGENMAFLTAMANSYGARWFDENWQPQFDGEAWKATLTDYLDMMTNYGPPGASNNGFNENLALFQQGKCGMWIDATVAASFVTNPEESTVADKVGFALAPDTGKGKRANWLWAWNLAIPAGSQKVDAAKQFIAWATSKDYAELVASKEGWANVPPGTRISLYENP | not soluble |
| MSLSRITTDQLRHAVLDRGSFVSWDSEPLAVPVADSYARELAAARAATGADESVQTGEGRVFGRRVAVVACEFDFLGGSIGVAAAERITAAVERATAERLPLLASPSSGGTRMQEGTVAFLQMVKIAAAIQLHNQARLPYLVYLRHPTTGGVFASWGSLGHLTVAEPGALIGFLGPRVYELLYGDPFPSGVQTAENLRRHGIIDGVVALDRLRPMLDRALTVLIDAPEPLPAPQTPAPVPDVPTWDSVVASRRPDRPGVRQLLRHGATDRVLLSGTDQGEAATTLLALARFGGQPTVVLGQQRAVGGGGSTVGPAALREARRGMALAAELCLPLVLVIDAAGPALSAAAEQGGLAGQIAHCLAELVTLDTPTVSILLGQGSGGPALAMLPADRVLAALHGWLAPLPPEGASAIVFRDTAHAAELAAAQGIRSADLLKSGIVDTIVPEYPDAADEPIEFALRLSNAIAAEVHALRKIPAPERLATRLQRYRRIGLEGHHHHHH | not soluble |
| MGCRATQRESVGFADKIRYTERRFISVFGVPLLIQLICQAPQRAQELEQIAARWQLQASDDSPFALVLSEERLELRKLDEPKLGAIYVDWVEGAVAHRRKFGGGKGQSIAKAAGLNKGVTPVVLDATAGLGRDAFVLASLGCRVQMVERHPVVAALLEDGLQRAKQDDEIGAWVSERISLLHASSHDALQQLASDPNFTSPDVVYLDPMYPHPENKKKTALVKKEMRVFQSLVGADNDADALLEPALQLAQKRVVVKRPDYAPWLGNRKPSMAMETKKNRFDVYVIAAMSGE | soluble |
| MKLSPATKSFIGKTVDISTFAIQWGFVPFVVYLGFKKGAEPMPNGQILPLSAMSLLWG | not soluble |
| MLRRGYKASERRRHLSERLSWHQDQALSSSIYLLREMGPTGFLLREEEPEYMDFRVFLGNPHVCNCSTFPKGGELCKHICWVLLKKFELPRNHESALQLGLGEREISDLLRGIHRVQTPQPGTNDENEHVEEDGYIKQKEIDSEDICSICQELLLEKKLPVTFCRFGCGNSIHIKCMKILANYQSTSNTSMLKCPLCRKEFAPLKLILEEFKNSSKLVAAAEKERLDKHLGIPCNNCKQFPIEGKCYKCTECIEYHLCQECFDSYCHLSHTFTFREKRNQKWRSLEKRADEVVKYIDTKNETEEKMSHFQEKQGQVYTPKHIVRSLPLQLITKNSKLLAPGYQCLLCLKAFHLGQHTRLLPCTHKFHRKCIDNWLFHKCNSCPIGGQVIYNPLTWKNSAVNGQAHQSVSNRDIIHLSKQKEPDLFIPGTGLVLKQNRLGILPSIPQCNFDELNTPQSPKDAYENTTIDNLCSIKLDNSNSKKLTYEYKISQHFPRYLQDLPTVSFGKIPSQTLLPPIVHKNIVCPTAMESPCISGKYHTSLSRVTKGCKCNNHNLKKTPATKIREDNKRSTLLPEDFNLIVNWSTAKLSLSKRYSNCMGEITRKCSHLSRQPVSHSVNTKSTELSLIIEGVQL | soluble |
| SRRLEDLHPDLQPLAHSFLRRCTDAGLDVLIYCTYRSGAEQDQLYAQGRKGSPGPIVTNARAGQSAHNFTIQNRPAARAFDAVPMVGGKPQWDQKHPHWQIMGRIGTELG | not soluble |
| MGSDKIHHHHHHMRIDIDAFNVLQVLVEEGSFAKASERLHKAQSAVSYQVKKLEQHLGVTLFNRDHYRAELTPEGKVILAEGQRLLQHLANIEHLASRFSQGWEPKLELVIDGALPMEPIMTALKRMSEHNIPTKVQLNMEFLGGVQHRFERDQADLMLVKDYRTGPSYHPKPLPTITSVLVASSQHPLSLLKEISLPELQQHVELTIEDSSPGKRDRDEMQFGGDKVFYLSGFIMKKNALLKGLGFGWMPDFLIAEELHQRQLIEVDFIGGNRFSFTPQLVSTLERPLGRAGQLFTELILEEFAQYQLQHQSGLSGAGLG | not soluble |
| MSLLFYRPLASIQALTFDLDDTLYDNRPVIKQVEEKVTEWLLSEHPITATRPLAWWLAMKRDIARRFPEQCHDVSQWRYLQVQHGLLELGYAQPEAEQAASETLEQVMRWRNQVDVPAETHRVLAQLAAKVPLIAITNGNVQIEKIGLSGYFQTVLRAGPDGRAKPYPDLFAQAAQQLQLEPRSILHVGDHLQTDVLGARQNGFQACWFNDQGQSIRRLAKASVLPDVEIERLSELLLIVNEGHHHHHH | soluble |
| MSVNVRPVKRFVEEQKKKNPEIKLSEKATQLLTDMPKMDSPEKLFNLEDKIATEMGSDRIFEEFLQDYAFLRNAVEEYLDGKPTSSDTISKIARLRRNTRLTHYGTALMRKEVAERMENVDAKLLQLQNVTSEVQHIQKEIDRCLDFSAGDEELELVPFEQFHTEASEILANETADNEHEQYLARLKFENEQRRELLSTLNELEGRRNVLQSDIRGKEVRLQGLKPKLEDLTKVAEPVFEMVGAKFKDLSIEGEQRKLSLQLPAPLAVAHIHAAAYKEIHDGEYSKILRNFLYKYKLFEFRILGTNDTEKQSKDETEAMKRKRKEDETTQEKINKMASELLEVHPMSLEFEIECSENIKISMQIQYLTELKVTTAKWHINTDSKLKKSPFFSIDSLMSDLFENDTGDKCPNDVGEMKIEHLKMNFNSSAKQIGKPFKFIQEISGSEGETDRIGATEHLRKVITTIRTRISNRAVLDGIIRDLESKKTDDLNLEPEVKINSFKICDDESFIASIPTSLTKKISNSAATDRFSYKIEASDGNGRKLTAYISIPADYPRHTALFGIAAPEDSESSTEVARQIEDRLNTEAHYVDDVKSIKEQLSLLLKHIDLS | not soluble |
| AQPGAEVLAIDGITVKDTRGIETVRDLSLSVKAGEIVGIAGVDGNGQSELIEAVTGLRKTDSGTITLNGKQIQNLTPRKITESGIGHIPQDRHKHGLVLDFPIGENILLQSYYKKPYSALGVLHKGEMYKKARSLITEYDVRTPDEYTHARALSGGNQQKAIIGREIDRNPDLLIAAQPTRGLDVGAIEFVHKKLIEQRDAGKAVLLLSFELEEIMNLSDRIAVIFEGRIIASVNPQETTEQELGLLMAGSTQKEAGKANG | not soluble |
| NLMKRCTRGFRKLGKCTTLEEEKCKTLYPRGQCTCSDSKMNTHSCDCKSC | soluble |
| MGSDKIHHHHHHMTGRQFDIEPLMDEINKSLKQEVNYLTEAQNTDLVKRTLTADHYVVPKVYHDYTTETVLTQSFETGLSVNQWIRSNPSRSDIQNFSQLVIQLMIDEMLLTGVVQTDPNYANFLYRPDSRQLVLLDFGATWTYSTEFRHDIHKLSMALLSGEIDKLMVGIYTRGYLDTRESDETKAQLREVLRMIGDISANLPQPVALQVDVAHDEIRAAAHVMGRGIRHTTLHKDLVLIGRKLTGMLLLLKEINAIVDFNEVRAHISAIKV | not soluble |
| MGSDKIHHHHHHKDLLGREVEIPSNVNRIVAVGPGALRLIAYLKATDMVVGVEDFEKLRPYGRPYILAYPELKKLPSVGPGGPGKLPDLESLITLQPDVVFITYVDRKTAKDIQEKTGIPVVVLSYGNLGTFEDEDLFRSIELAGKILGREERAHEVVDFIRKAQEDLVTRSEGVESPTVYVGGIGYKGAHGIDSTEAKYPPFVVLHARNVVDELGEGHKFIDPEKLLVWNPEYIFIDENGLSLVLDDYSKHREFYESLSAVKRGKVYGILPYNYYTTNIGTALADAYFIGKVLYPERFTDIDPEEKADEIYEFLLGKRVYGEMAEQFGGFGKIDLPSGRILRGTW | not soluble |
| MKILKKIFQVIVKIINHCVPVDSRSLYFIPHPNCRTDKYDIINYSSDNVLVLLNYLLKKDSAEYYKIYVEIYDSSRISEYQEYIYGINPNIRCTFLCACVGRFFFNKVSFKDMLYAFFCFCRASKCFTATFYYDFSFKKRSQQIICLGYYTPFKDDYHMGDHSYDKFRNTTCNSFDYSIATSCLSARIISIDCGISYDKFKVLGFPRNDLLISKNNCNVIKREISKFAGYDVTKYIVYTPTFRDYETVTEGNLRSILGYVDCDLLKLSKILLKFNAALILKLHPLQNKTVLKKDLPKGILVFEQTYKYGLYDLLSFSDGMITDYTSTYFDFLLVNKPVIFNFYDIEEYRRVRGFSFEPIEFFCAGDIVYNYNELIDAVMGLLAGKDIHAEHRRHISLLMNQFQDDNSTKRICDIFLNEILEHHHHHH | not soluble |
| MGSDKIHHHHHHMDALVRASGLRGYPALMRDLGCDPTPLLQRYHLDEGALGSDDAMISLRAVVHLLEASAEQTRTGDLGLRLSRHQSIDVLGPLSIALQNAPTIRAAMDFAARHTFVHSPGLVYAVHKHSEFANDAAEVSIEIRLSRQPAQRQTIDLCLADIHNFTRLLAGDRYLLRAVSVPHTPVVPVSTYERFFGARVWVEQPRASLHLSRSTLAADLLGVDATLRRIAEDYIFRHFGSEQGSVSDRVRQVLRQTLGTSSHSKATVADLLALHPRTMQRRLAAEATSFEAIRDDVRRELAMRYLCETSLPLGQISLLLGLPAQSALSRACRQWYGVPPSALRKHKRAAD | not soluble |
| MGSDKIHHHHHHMGLASPWQVSISSFDAEKKRLDIHLDVAPGSTFCCPECGILKLQSFPWSGRDSGFTLLFEAMIMVMARSMAVKAIATIVGEHDTRIWRIVHHYVDQAREMEDYSAVTTVGVDEPSSKRGHNSVTLFADLARSKVLFATEGKDASTVERFRDDLVAHKGNPASVTECCSDMSPACISGIGSHFVNAHLSFDKFHVMQIINHAVDEVRRQEQQERPELKKSRYLWLKNQQNLKAKQRNRLEELSLAKLNLKTARADRMRLAFQECFNQPVTLAESFLKKWCFRAANSISPYPLETARSQDNDGWTHRASWAGI | not soluble |
